Source: patent US20080287363A1

Tests used:
CCL5/RANTES [1] = molecular target: CCL5/RANTES (UniProt P13501); experiment: equilibrium competition receptor binding assay (SPA): inhibition of 0.1 nM 125I-RANTES binding to CHO/CCR1 membranes
CCL5/RANTES [2] = molecular target: CCL5/RANTES (UniProt P13501); experiment: equilibrium competition receptor binding assay (SPA): inhibition of 0.1 nM 125I-RANTES binding to CHO/CCR5 membranes

Chain of CCL5/RANTES (P13501 24-91 limits assumed): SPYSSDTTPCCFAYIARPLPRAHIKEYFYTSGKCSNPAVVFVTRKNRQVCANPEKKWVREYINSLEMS

recombinant Δ6 evasin-4 (truncated, N-terminally 6His tagged evasin-4, amino acids 24-127), purified
IC50 (CCL5/RANTES [1]): 7 nM
IC50 (CCL5/RANTES [2]): 3 nM
